Measured values from patent US20230390363A1, “Compounds, Compositions and Methods of Use to Treat Spinal Fusions” (PURDUE RESEARCH FOUNDATION, priority 2020, published 2023).
Non-standard residues stand in square brackets, D forms with d. Aib = CC(C)(N)C(=O)O

Tested on: posterolateral spinal fusion of L4-L5
Experiment: Posterolateral spinal fusion of L4-L5 in rats: micro-CT and manual palpitation after treatment
Assay type: in vivo, rat
Conditions: for spinal fusion (micro-CT, manual palpitation): plain collagen matrix, rhBMP-2 10 μg soaked in matrix
Description: FIG. 6, panels A-C show three-dimensional reconstructions of micro-CT scans of a posterolateral spinal fusion of L4-L5 in a rat treated with a plain collagen matrix and a compound of SEQ ID NO: 2 for eight weeks. In some embodiments, SEQ ID NO: 2 was dosed (e.g., in rodents) at 33 nmol/kg twice a week. […] In some embodiments, the collagen matrix was applied during surgery. […] In some embodiments, phosphate-buffered saline was dosed at a 1× concentration twice a week in the same volume as SEQ ID NO: 2. […] Scores were assigned 0-5 on osteointegration, density, and bridging of both bilateral spinal fusions in microCT scans of the rats as determined by an individual who was blinded to the treatment and reviewed random samples. The total score is the sum of all five scores combined. […] The density of the scan was assigned based on a standard curve generated by a phantom hydroxyapatite standard set. A bilateral posterolateral lumbar spinal fusion was performed under aseptic conditions using isoflurane as an anesthetic. The skin surrounding the L2-L6 region on the back was shaved and disinfected using a Betadine solution followed by an alcohol pad. A 3-cm incision extending from the L3 to L6 vertebrae was made in the skin in this prepared area. The muscle on the vertebral body between the spinous process and the transverses process was bluntly dissected away from the vertebral body to expose the transverses processes. Using a low-speed burr, the L4 and L5 transverse processes cortical bone was removed in addition to the facia joint between the two vertebrae. The burr removed the surface layer of the bone. This process is known as decortication and was done to allow for direct regeneration of bone tissue. Following decortication, a drug-soaked collagen sponge was placed on each side of the vertebrae. A 5×7.5-mm collagen sponge was soaked to saturation in the drugs for 10 minutes. The collagen sponge (RCM6 membranes from ACE surgical supplies) served as a scaffold to aid in the fusion of the vertebrae. Mineralized collagen scaffolds (supplied by Houston Methodist, Houston, TX) and collagen scaffolds wrapped around anorganic bone granules (InterOss bone granules; SigmaGraft Inc. Biomaterials, Fullerton, CA) were also separately used. The inter-muscle was closed with resorbable sutures. The exterior wound was then sutured closed using a nylon suture. Subcutaneous buprenorphine (0.05-0.1 mg/kg) was then administered directly after the operation and was repeated every 12 hours for the next 3 days post-surgery. Fracture healing was assessed using micro-CT (Scanco Medical Ag or PerkinElmer). The anesthetized animal was scanned for two minutes with the PerkinElmer Quantum FX micro-CT at high resolution with a voxel size of 10 μM at 90 kV and 88 uA and an Al 0.5 mm+Cu 0.06 mm filter. The scanning detector rate was 117 fps. The images were analyzed in ImageJ using the BoneJ package. Morphometric parameters were quantified in an ROI that included just the fracture callus. Trabecular thickness (Tb.Th.), trabecular spacing (Tb. Sp.), total volume (TV), and volume of calcified callus (BV) were calculated. Statistical analysis was performed using a one-way analysis of variance (ANOVA) and a Dunnett's post-hoc analysis with significance reported at the P value of 0.05. All animal experiments were performed in accordance with protocols approved by Purdue University's Institutional Animal Care and Use Committee (IACUC). Rats were scanned in AMI after being anesthetized with isoflurane.

B1: H-AVSEHQLLHDKGKSIQDLRRRELLEKLLxKLHTAEIRATSEVSPNSeeeeeeeeeeeeeeeeeeee (peptide)
chain: H-AVSEHQLLHDKGKSIQDLRRRELLEKLL[Aib]KLHTAEIRATSEVSPNS[dE][dE][dE][dE][dE][dE][dE][dE][dE][dE][dE][dE][dE][dE][dE][dE][dE][dE][dE][dE]
notes: PTHrP fragment conjugated at its C-terminus to a linear peptide of 20 D-glutamic acid residues; x=Aib, e=D-glutamic acid
Bone graft matrix, eight weeks
  change of bone graft granules on micro-CT: the granules resorb
Bone graft matrix, eight weeks, SEQ ID NO: 2 33 nmol/kg twice a week, rhBMP-2 10 μg
  spinal fusion (manual palpitation): no fusion
Mineralized collagen scaffold, eight weeks of treatment
  spinal fusion (micro-CT): none of the treatments had fused
Mineralized collagen scaffold, five weeks of treatment, preliminary results
  mineralization of the scaffolds (micro-CT): increased the mineralization of the scaffolds more than BMP2 or saline
Eight weeks, SEQ ID NO: 2 33 nmol/kg twice a week
  spinal fusion (micro-CT, manual palpitation): Fusion was confirmed
Eight weeks, SEQ ID NO: 2 33 nmol/kg twice a week, listed as SEQ ID NO.: 2
  spinal fusion (micro-CT, manual palpitation): fused
